According to PMC7046727:

Tests used:
[1] = biological target: sLif, soluble form of Pseudomonas aeruginosa lipase-specific foldase Lif that lacks the transmembrane domain (TMD) (Pseudomonas aeruginosa); assay: other fluorescence titration; sLif / sLif_(Y99A) labelled with BDP FL (1.2 nM label, total about 24 nM) with 0-50 uM LipA overnight at 4 °C in 10 mM glycine buffer pH 9; steady-state anisotropy and average translational diffusion time (FCS) on a confocal microscope (sLif_(Y99A): diffusion time only); 1:1 binding model; apparent KD
[2] = biological target: sLif_(Y99A), variant of soluble P. aeruginosa Lif with Y99 mutated to alanine (Pseudomonas aeruginosa); assay: as above

For “lipase LipA of Pseudomonas aeruginosa, pre-active form refolded in vitro (enzyme)”, which Kd [1] is on record?
Its Kd is 29 nM.

What about the Kd [2] of the same substance?
The Kd was 77 nM.
